Laboratory results reported in patent publication US20260061022A1 (GI INNOVATION, published 2026).

Assays:
IgE [1] = molecular target: T1, IgE (Homo sapiens (Human), UniProt P01854 1-427); assay: kinetic binding measurement of Table 3, KD against omalizumab as reference; the end is tied to FcεRIαECD-Fc2ST by 'exhibits the highest IgE-binding affinity which is 69-fold higher than omalizumab'
T1 construct: also called immunoglobulin E
T1 constant: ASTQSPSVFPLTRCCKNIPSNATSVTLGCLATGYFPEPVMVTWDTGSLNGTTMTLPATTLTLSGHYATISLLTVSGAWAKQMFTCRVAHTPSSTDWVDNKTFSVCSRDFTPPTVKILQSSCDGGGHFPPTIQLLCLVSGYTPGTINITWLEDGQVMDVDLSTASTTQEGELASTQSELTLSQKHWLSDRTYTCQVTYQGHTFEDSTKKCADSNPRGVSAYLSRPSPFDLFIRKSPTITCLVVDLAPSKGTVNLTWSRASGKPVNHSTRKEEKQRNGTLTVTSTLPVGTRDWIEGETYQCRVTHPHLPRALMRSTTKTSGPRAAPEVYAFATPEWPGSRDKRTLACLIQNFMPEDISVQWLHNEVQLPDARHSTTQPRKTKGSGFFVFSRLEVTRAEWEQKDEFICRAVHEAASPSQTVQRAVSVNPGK
Experimental: (§1) Here, the experiments were conducted by identifying zero base using 25 mM NaOH as a regeneration buffer, and then repeating the above steps. Thereafter, a binding curve was identified using a protein binding analyzer (ProteOn XPR36, Bio-Rad Laboratories, Inc., USA).

IgG Fc gamma receptor I = molecular target: T2, IgG Fc gamma receptor I (UniProt P12314 16-288); assay: BLI (Octet RED384), FcγRI immobilised on AR2G biosensor, IgETRAP in solution
T2 construct: Bought recombinant protein immobilised on an AR2G biosensor; also called FcγRI
T2 sequence (P12314 16-288 limits assumed): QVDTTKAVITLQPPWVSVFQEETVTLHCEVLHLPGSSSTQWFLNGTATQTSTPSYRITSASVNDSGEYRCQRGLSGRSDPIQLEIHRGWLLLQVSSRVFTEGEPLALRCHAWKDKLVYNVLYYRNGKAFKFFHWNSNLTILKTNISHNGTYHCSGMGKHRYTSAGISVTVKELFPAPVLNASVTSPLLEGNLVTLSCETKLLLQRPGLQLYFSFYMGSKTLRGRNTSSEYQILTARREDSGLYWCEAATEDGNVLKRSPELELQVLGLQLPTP
Experimental: (§2) Specifically, FcγRI, FcγRIIA, FcγRIIB, FcγRIIIA, and FcγRIIIB recombinant proteins (R & D Systems Inc., 5 μg/ml) which are Fc gamma receptors were immobilized in 300 mM acetate buffer (pH 5) on the activated AR2G biosensor. As a running buffer, PBS containing 0.1% Tween-20 and 1% bovine serum was used. All measurements were carried out at 30° C. with a sample plate shaker at a rate of 1,000 rpm.

[2] = molecular target: T3, IgG Fc gamma receptor IIA (UniProt P12318 36-218, limits assumed); assay: BLI (Octet RED384), FcγRIIA immobilised on AR2G biosensor, IgETRAP in solution
T3 construct: Bought recombinant protein immobilised on an AR2G biosensor; also called FcγRIIA
T3 sequence (looked up): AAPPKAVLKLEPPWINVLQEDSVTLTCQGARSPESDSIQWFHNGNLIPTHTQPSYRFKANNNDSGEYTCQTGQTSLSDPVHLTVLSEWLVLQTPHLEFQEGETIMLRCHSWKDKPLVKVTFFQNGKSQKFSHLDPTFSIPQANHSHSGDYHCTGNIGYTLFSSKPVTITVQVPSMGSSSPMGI
Experimental: as §2

human IgE = human IgE (human, UniProt P01854-1 1-428); assay: cell-based or functional assay
IgE [3] = molecular target: T1, IgE; assay: SPR (ProteOn XPR36), IgE coated on the GLC sensor chip, IgETRAP flowed at 0, 3.2, 6.3, 12.5, 25 and 50 nM
[4] = molecular target: IgE (Experimental Example 4); assay: cell-based or functional assay
IgE [5] = molecular target: T1, IgE; assay: SPR, ProteOn XPR36, IgE coated on GLC chip, analyte flowed
Experimental: as §1

[6] = molecular target: T4, IgG Fc gamma receptor IIB (UniProt P31994 46-217, limits assumed); assay: BLI (Octet RED384), FcγRIIB immobilised on AR2G biosensor, IgETRAP in solution
T4 construct: Bought recombinant protein immobilised on an AR2G biosensor; also called FcγRIIB
T4 sequence (looked up): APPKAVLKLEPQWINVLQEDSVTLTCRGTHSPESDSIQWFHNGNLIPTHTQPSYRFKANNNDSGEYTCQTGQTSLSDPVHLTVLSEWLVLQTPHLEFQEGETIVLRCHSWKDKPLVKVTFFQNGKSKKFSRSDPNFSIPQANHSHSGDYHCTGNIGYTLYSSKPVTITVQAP
Experimental: as §2

[7] = molecular target: T5, IgG Fc gamma receptor IIIB (UniProt O75015 20-208, limits assumed); assay: BLI response at 4 uM, FcγRIIIB immobilised on AR2G biosensor
T5 construct: Bought recombinant protein immobilised on an AR2G biosensor; also called FcγRIIIB
T5 sequence (O75015 20-208 limits assumed): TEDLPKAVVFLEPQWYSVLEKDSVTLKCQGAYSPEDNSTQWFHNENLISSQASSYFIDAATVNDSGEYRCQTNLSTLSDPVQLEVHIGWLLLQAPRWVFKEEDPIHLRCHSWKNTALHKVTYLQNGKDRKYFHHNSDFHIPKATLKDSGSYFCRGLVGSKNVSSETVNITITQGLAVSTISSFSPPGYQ
Experimental: as §2

| Binder | fold change of equilibrium dissociation constant (KD) against omalizumab (printed as 'higher'; meant as higher affinity) (IgE [1]) [fold] | binding result (IgG Fc gamma receptor I) | binding result [2] | IC50, inhibition of β-hexosaminidase secretion by human FcεRI-expressing mouse bone marrow-derived mast cells (human IgE) [µg/mL] | fold higher inhibitory ability on mast cell activity than Xolair (human IgE) [fold] | Kd (IgE [3]) [nM] | IC50 (read off the curve); inhibition ratio (%) of beta-hexosaminidase release from mouse bone marrow-derived mast cells, dimer pre-mixed with IgE at 1 ug/mL [4] [µg/mL] | fold better KD than omalizumab (IgE [5]) [fold] | fold better kd than omalizumab (IgE [5]) [fold] | fold weaker ka than omalizumab (IgE [5]) [fold] | binding result [6] | binding result [7] |
| --- | --- | --- | --- | --- | --- | --- | --- | --- | --- | --- | --- | --- |
| FcεRIαECD-Fc2ST (Fc fusion, sialic acid added to the glycans by co-expressed α-2,6-sialic acid transferase, Homodimer; also called IgETRAP; FcεRIαECD-Fc2 + a2,6-ST) VPQKPKVSLNPPWNRIFKGENVTLTCNGNNFFEVSSTKWFHNGSLSEETNSSLNIVNAKFEDSGEYKCQHQQVNESEPVYLEVFSDWLLLQASAEVVMEGQPLFLRCHGWRNWDVYKVIYYKDGEALKYWYENHNISITNATVEDSGTYYCTGKVWQLDYESEPLNITVIKAPREKYWLQRNTGRGGEEKKGSKEKEEQEERETKTPECPSHTQPLGVFLFPPKPKDTLMISRTPEVTCVVVDVSQEDPEVQFNWYVDGVEVHNAKTKPREEQFNSTYRVVSVLTVLHQDWLNGKEYKCKVSNKGLPSSIEKTISKAKGQPREPQVYTLPPSQEEMTKNQVSLTCLVKGFYPSDIAVEWESNGQPENNYKTTPPVLDSDGSFFLYSRLTVDKSRWQEGNVFSCSVMHEALHNHYTQKSLSLSLGK | 22 to 69 | no binding (tested: 4 uM) | no binding (tested: 4 uM) | ~0.0112 | 58 | 0.215 | ~0.5 | 69 | 106 | 1.5 | no binding (tested: 4 uM) | no binding (tested: 4 uM) |
| FcεRIαECD-Fc2 (Fc fusion, Made in CHO DG44 cells without the sialic acid transferase; Homodimer joined through the hinge cysteine; also called polypeptide dimer) VPQKPKVSLNPPWNRIFKGENVTLTCNGNNFFEVSSTKWFHNGSLSEETNSSLNIVNAKFEDSGEYKCQHQQVNESEPVYLEVFSDWLLLQASAEVVMEGQPLFLRCHGWRNWDVYKVIYYKDGEALKYWYENHNISITNATVEDSGTYYCTGKVWQLDYESEPLNITVIKAPREKYWLQRNTGRGGEEKKGSKEKEEQEERETKTPECPSHTQPLGVFLFPPKPKDTLMISRTPEVTCVVVDVSQEDPEVQFNWYVDGVEVHNAKTKPREEQFNSTYRVVSVLTVLHQDWLNGKEYKCKVSNKGLPSSIEKTISKAKGQPREPQVYTLPPSQEEMTKNQVSLTCLVKGFYPSDIAVEWESNGQPENNYKTTPPVLDSDGSFFLYSRLTVDKSRWQEGNVFSCSVMHEALHNHYTQKSLSLSLGK |  |  |  |  |  |  |  | 38 | 73 | 1.9 |  |  |
| FcεRIαECD-Fc3 (Fc fusion, Made in CHO DG44 cells without the sialic acid transferase; Homodimer; also called polypeptide dimer) VPQKPKVSLNPPWNRIFKGENVTLTCNGNNFFEVSSTKWFHNGSLSEETNSSLNIVNAKFEDSGEYKCQHQQVNESEPVYLEVFSDWLLLQASAEVVMEGQPLFLRCHGWRNWDVYKVIYYKDGEALKYWYENHNISITNATVEDSGTYYCTGKVWQLDYESEPLNITVIKAPREKYWLQAQPQAEGSLAKATTAPATTRNTGRGGEEKKGSKEKEEQEERETKTPECPSHTQPLGVFLFPPKPKDTLMISRTPEVTCVVVDVSQEDPEVQFNWYVDGVEVHNAKTKPREEQFNSTYRVVSVLTVLHQDWLNGKEYKCKVSNKGLPSSIEKTISKAKGQPREPQVYTLPPSQEEMTKNQVSLTCLVKGFYPSDIAVEWESNGQPENNYKTTPPVLDSDGSFFLYSRLTVDKSRWQEGNVFSCSVMHEALHNHYTQKSLSLSLGK |  |  |  |  |  |  |  | 22 | 45 | 2 |  |  |
| FcεRIαECD-Fc3ST (Fc fusion, sialic acid added to the glycans by co-expressed α-2,6-sialic acid transferase, Homodimer; also called FcεRIαECD-Fc3 + a2,6-ST; polypeptide dimer) VPQKPKVSLNPPWNRIFKGENVTLTCNGNNFFEVSSTKWFHNGSLSEETNSSLNIVNAKFEDSGEYKCQHQQVNESEPVYLEVFSDWLLLQASAEVVMEGQPLFLRCHGWRNWDVYKVIYYKDGEALKYWYENHNISITNATVEDSGTYYCTGKVWQLDYESEPLNITVIKAPREKYWLQAQPQAEGSLAKATTAPATTRNTGRGGEEKKGSKEKEEQEERETKTPECPSHTQPLGVFLFPPKPKDTLMISRTPEVTCVVVDVSQEDPEVQFNWYVDGVEVHNAKTKPREEQFNSTYRVVSVLTVLHQDWLNGKEYKCKVSNKGLPSSIEKTISKAKGQPREPQVYTLPPSQEEMTKNQVSLTCLVKGFYPSDIAVEWESNGQPENNYKTTPPVLDSDGSFFLYSRLTVDKSRWQEGNVFSCSVMHEALHNHYTQKSLSLSLGK |  |  |  |  |  |  |  | 24 | 40 | 1.7 |  |  |
